Source: patent publication US12194080B2, “Methods for identification, assessment, prevention, and treatment of metabolic disorders using PM20D1 and N-lipidated amino acids” (Dana-Farber Cancer Institute, Inc., priority 2015, dated 2025)
“Also recorded” adds a separate entry of the source.

What was measured:
C2C12 cells = experiment: Cellular oxygen consumption rate (uncoupled respiration), C2C12 cells; assay type: cell-based, mouse; details: 50 μM, after oligomycin 1 μM
Experimental: C2C12, U2O5, and 293A cells were cultured in DMEM with 10% FBS and pen/strep. Primary inguinal (iWAT) and brown (BAT) adipocytes were obtained as follows. The stromal-vascular fraction of inguinal (iWAT) pad from 4-12 week old male mice was dissected, minced, and digested for 45 min. at 37° C. in PBS containing 10 mM CaCl2, 2.4 U/ml dispase II (Roche), and 1.5 U/ml collagenase D (Roche). The stromal-vascular fraction of brown fat (BAT) pads from newborn (P1-P14) pups was dissected, minced, and digested for 45 min at 37° C. in PBS containing 1.3 mM CaCl2, 120 mM NaCl, 5 mM KCl, 5 mM glucose, 100 mM HEPES, 4% BSA, and 1.5 mg/ml collagenase B (Roche). Digested tissue was diluted with adipocyte culture media (DMEM/F-12, GlutaMAX™ supplement, Life Technologies, with 10% FBS and pen/strep) and centrifuged (600×g for 10 min.). The pellet was resuspended in 10 ml adipocyte culture media, strained through a 40 μm filter, and plated. Differentiation was induced by application of an adipogenic cocktail containing 5 μg/ml insulin (Sigma), 5 μM dexamethasone (Sigma), 250 μM isobutylmethylxanthine (Sigma), and 1 μM rosiglitazone (Cayman) for 2 days. Two days after induction, cells were maintained in adipocyte culture media containing 5 μg/ml insulin and 1 μM rosiglitazone.
Cellular oxygen consumption rates were determined using an XF24 Extracellular Flux Analyzer (Seahorse Biosciences). Oligomycin was purchased from EMD Millipore, and FCCP and rotenone were purchased from Sigma. C2C12 or U2OS cells were seeded at 30,000 or 50,000 cells/well, respectively in an XF24 cell culture microplate (V7-PS, Seahorse Bioscience) and analyzed the following day. Primary iWAT or BAT adipocytes were seeded at 15,000 cells/well, differentiation was induced the following day as described, and the cells were analyzed on day 5. On the day of analysis, the cells were washed once with Seahorse respiration buffer (8.3 g/1 DMEM, 1.8 g/l NaCl, 1 mM pyruvate, 20 mM glucose, pen/strep), placed in 0.5 ml Seahorse respiration buffer, and incubated in a CO2-free incubator for 1 hr. Port injection solutions were prepared as follows (final concentrations in assay in parentheses): 10 μM oligomycin (1 μM final), […] amino acid (50 μM final), 2 μM FCCP (0.2 μM final), and 30 μM rotenone (3 μM final). The Seahorse program was run as follows: basal measurement, 3 cycles; inject port A (oligomycin), 3 cycles; inject port B (compounds), 8 cycles; inject port C (FCCP), 3 cycles; inject port D (rotenone), 3 cycles. Each cycle consisted of mix 4 min, wait 0 min, and measure 2 min. For data expressed as a percentage of oligomycin-treated basal, the respiration at cycle 6 was normalized to 100%, and the maximum respiration at any time point between cycles 7 and 15 inclusive was used.

proteins in C2C12 cells = experiment: UV crosslinking with photo-probe and identification of N-acyl amino acid protein targets (TAMRA in-gel fluorescence, LC-MS/MS); assay type: binding, mouse; details: photo-probe 50 μM, 20 min, UV irradiation 10 min
Experimental: Confluent 6-cm plates of C2C12 cells were washed twice with PBS and then treated with photo-probe (20 μM) with or without competitor (C20:4-Phe, 100 μM) in serum free media at 37° C. for 20 min. The media was aspirated. Cells were then placed on ice and UV-irradiated (10 min, UV Stratalinker 2400). Control samples were left on ice under ambient light.
Following UV irradiation, cells were then scraped, centrifuged (5 min, 1,400×g), washed once with cold PBS, and centrifuged again (5 min, 1,400×g). The cell pellets were resuspended in 0.3 ml PBS and sonicated. Click chemistry was performed as follows: To 50 μl cell lysate at 1 mg/ml was added 3 μl TBTA (stock solution: 1.7 mM in 4:1 v/v DMSO:t-BuOH), 1 ul CuSO4 (stock solution: 50 mM in water), 1 ul TCEP (freshly prepared, stock solution: 50 mM), and 1 ul TAMRA-N3 (stock solution: 1.25 mM in DMSO). Reactions were incubated at room temperature for 1 h, and then quenched with 4× SDS loading buffer (17 ul). In-gel TAMRA fluorescence was visualized on a Typhoon™ FLA 9000 scanner (GE Healthcare Life Sciences).

mouse PM20D1 [1] = biological target: T1, mouse PM20D1 (Mus musculus, UniProt Q8C165); experiment: In vitro PM20D1-catalyzed synthesis of N-acyl amino acids; assay type: biochemical; details: PBS, 37° C., 1.5 h
T1 construct: Full-length mouse Pm20d1 cDNA (GE Dharmacon) was subcloned with an in-frame C-terminal 6× His and FLAG® tag; made in house; host or cells: 293A (HEK293A) cells stably infected with retrovirus
T1 sequence (Q8C165 25-503): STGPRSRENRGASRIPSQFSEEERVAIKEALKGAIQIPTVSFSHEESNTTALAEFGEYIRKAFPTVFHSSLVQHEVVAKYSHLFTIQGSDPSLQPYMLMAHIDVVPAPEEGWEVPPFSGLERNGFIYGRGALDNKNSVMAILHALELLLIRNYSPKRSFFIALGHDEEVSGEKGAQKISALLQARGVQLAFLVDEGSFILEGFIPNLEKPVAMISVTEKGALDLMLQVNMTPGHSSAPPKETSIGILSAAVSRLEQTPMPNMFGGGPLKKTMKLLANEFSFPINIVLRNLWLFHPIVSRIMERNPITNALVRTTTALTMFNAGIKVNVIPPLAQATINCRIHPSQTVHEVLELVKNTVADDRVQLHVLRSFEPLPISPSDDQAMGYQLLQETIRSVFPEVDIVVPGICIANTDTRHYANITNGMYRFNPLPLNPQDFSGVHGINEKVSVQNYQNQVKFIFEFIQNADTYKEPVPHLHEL
Experimental: (§1) The concentrated media was centrifuged to remove debris (600×g, 10 min, 4° C.) and the supernatant containing PM20D1-flag was decanted into a new tube. PM20D1-Flag was immunoaffinity purified overnight at 4° C. from the concentrated media using magnetic Flag-M2 beads (Sigma Aldrich). The beads were collected, washed three times in PBS, eluted with 3× Flag peptide ([…] in PBS, Sigma Aldrich), aliquoted, and stored at −80° C. For the purification of human PM20D1-flag, hPM20D1-flag plasmid (Origene) was transiently transfected into 293A cells. After two days, the media was changed, harvested 24 h later, concentrated, and purified exactly as described above.
(§2) In vitro PM20D1-catalyzed synthesis of N-acyl amino acids was measured by incubating purified PM20D1 protein with oleate (1.5 mM) and phenylalanine (0.1 mM) in PBS (to 100 μl final volume) at 37° C. for 1.5 hrs. In vitro PM20D1-catalyzed N-acyl amino acid hydrolysis was measured by incubating purified PM20D1 protein with the indicated N-acyl amino acid (0.1 mM) in PBS (to 100 μl final volume) at 37° C. for 1.5 hrs. Reactions were terminated by placing the vials at −80° C. and the products generated in vitro were analyzed by mass spectroscopy (MS).
(§3) Briefly, frozen serum (30 μl) for polar metabolomic analyses were extracted in 160 μl of 1:1 acetonitrile/methanol with inclusion of internal standard D3, ^15N-serine (1 nmol). Activity assays (100 μl) were extracted in 400 μl 1:1 acetonitrile/methanol. Following 30 s of thorough vortexing and 1 min of bath sonication, the polar metabolite fraction (supernatant) was isolated by centrifugation at 13,000×g for 10 min. Ten μl of this supernatant was analyzed by SRM-based targeted LC-MS/MS, or untargeted LC-MS.
(§4) For separation of polar metabolites, normal-phase chromatography was performed with a […] column (50 mm×4.60 mm, Phenomenex). Mobile phases were as follows: Buffer A, acetonitrile; Buffer B, 95:5 water/acetonitrile with 0.1% formic acid or 0.2% ammonium hydroxide with 50 mM ammonium acetate for positive and negative ionization mode, respectively. The flow rate for each run started at 0.2 ml/min for 2 min, followed by a gradient starting at 0% B and increasing linearly to 100% B over the course of 15 min with a flow rate of 0.7 ml/min, followed by an isocratic gradient of 100% B for 10 min at 0.7 ml/min before equilibrating for 5 min at 0% B with a flow rate of 0.7 ml/min. MS analysis was performed with an electrospray ionization (ESI) source on an Agilent 6430 QQQ LC—MS/MS. The capillary voltage was set to 3.5 kV, and the fragmentor voltage was set to 100 V. The drying gas temperature was 325° C., the drying gas flow rate was 10 l/min, and the nebulizer pressure was 45 psi. For polar targeted and untargeted metabolomic analysis, representative metabolites were quantified by SRM of the transition from precursor to product ions (corresponding to amino acid fragment) at associated collision energies. Several representative fragmentation ions are as follows: C18:1-Ala, 352>88; C18:1-Gly, 338>74; C18:1-Phe, 428>164; C18:1-Leu/Ile, 394>130; C20:4-Phe, 450>164; C20:4-Leu/Ile, 416>130. Untargeted LC-MS was performed by scanning a mass range of m/z 50-1200, and data were exported as mzdata files and uploaded to XCMSOnline (xcmsserver.nutr.berkeley.edu) to identify metabolites that were differentially changed. For targeted metabolomics analysis, metabolites were quantified by integrating the area under the peak and were normalized to internal standard values corresponding to 1 nmol D3, ^15N-serine.

APOA1 = experiment: FLAG immunoprecipitation of PM20D1-flag from primary brown fat cells with mass spectrometry identification; assay type: binding, mouse
Excerpt: The mass spectrometry identification of the indicated proteins (PM20D1 or APOA1) are indicated to the right of the gel.

mouse PM20D1 [2] = biological target: T1, mouse PM20D1; experiment: In vitro PM20D1-catalyzed N-acyl amino acid hydrolysis; assay type: biochemical; details: PBS, 37° C., 1.5 h
Experimental: as §1, §2, §3, §4

Molecule: C#CCCCCCCCCCCCCCCCC(=O)N[C@@H](CC1(C)N=N1)C(=O)O [photo-probe, (S)-3-(3-methyl-3H-diazirin-3-yl)-2-(octadec-17-ynamido)propanoic acid]
- uncoupling activity (uncoupled respiration) (C2C12 cells): competent inducer of uncoupled respiration
- crosslinking assessed by in-gel TAMRA fluorescence (proteins in C2C12 cells): robust, UV-dependent crosslinking

B1: PM20D1: purified recombinant C-terminal 6xHis/flag-tagged mouse peptidase M20 domain containing 1, a secreted enzyme (protein, listed as Homo sapiens)
chain: MAQRCVCVLALVAMLLLVFPTVSRSMGPRSGEHQRASRIPSQFSKEERVAMKEALKGAIQIPTVTFSSEKSNTTALAEFGKYIHKVFPTVVSTSFIQHEVVEEYSHLFTIQGSDPSLQPYLLMAHFDVVPAPEEGWEVPPFSGLERDGIIYGRGTLDDKNSVMALLQALELLLIRKYIPRRSFFISLGHDEESSGTGAQRISALLQSRGVQLAFIVDEGGFILDDFIPNFKKPIALIAVSEKGSMNLMLQVNMTSGHSSAPPKETSIGILAAAVSRLEQTPMPIIFGSGTVVTVLQQLANEFPFPVNIILSNPWLFEPLISRFMERNPLTNAIIRTTTALTIFKAGVKFNVIPPVAQATVNFRIHPGQTVQEVLELTKNIVADNRVQFHVLSAFDPLPVSPSDDKALGYQLLRQTVQSVFPEVNITAPVTSIGNTDSRFFTNLTTGIYRFYPIYIQPEDFKRIHGVNEKISVQAYETQVKFIFELIQNADTDQEPVSHLHKL
modifications: C-terminal 6xHis/flag tag
notes: purified recombinant C-terminal 6xHis/flag-tagged mouse peptidase M20 domain containing 1, a secreted enzyme
- conversion in the synthase direction (mouse PM20D1 [1]; oleate 1.5 mM, Phe 100 μM, n=3): 1.2±0.1%
- N-acyl amino acid synthase activity (mouse PM20D1 [1]; oleate and Phe as substrates): Significant formation of C18:1-Phe; also recorded: possessed enzymatic activity
- interaction with apolipoprotein 1 (APOA1) (APOA1): interacts with apolipoprotein 1 (APOA1)
- conversion in the hydrolase direction (mouse PM20D1 [2]; C18:1-Phe 100 μM, n=3): 94.0±0.8%
- N-acyl amino acid hydrolase activity (mouse PM20D1 [2]; C18:1-Phe as substrate): possessed enzymatic activity
